Experimental data reported in article PMC2116111.

Target: 420-kD polypeptide (human alpha 2-macroglobulin receptor) (human (endogenous in placenta)) (UniProt Q07954)
Test: ELISA

Chain of UniProt Q07954 (Q07954 20-4544): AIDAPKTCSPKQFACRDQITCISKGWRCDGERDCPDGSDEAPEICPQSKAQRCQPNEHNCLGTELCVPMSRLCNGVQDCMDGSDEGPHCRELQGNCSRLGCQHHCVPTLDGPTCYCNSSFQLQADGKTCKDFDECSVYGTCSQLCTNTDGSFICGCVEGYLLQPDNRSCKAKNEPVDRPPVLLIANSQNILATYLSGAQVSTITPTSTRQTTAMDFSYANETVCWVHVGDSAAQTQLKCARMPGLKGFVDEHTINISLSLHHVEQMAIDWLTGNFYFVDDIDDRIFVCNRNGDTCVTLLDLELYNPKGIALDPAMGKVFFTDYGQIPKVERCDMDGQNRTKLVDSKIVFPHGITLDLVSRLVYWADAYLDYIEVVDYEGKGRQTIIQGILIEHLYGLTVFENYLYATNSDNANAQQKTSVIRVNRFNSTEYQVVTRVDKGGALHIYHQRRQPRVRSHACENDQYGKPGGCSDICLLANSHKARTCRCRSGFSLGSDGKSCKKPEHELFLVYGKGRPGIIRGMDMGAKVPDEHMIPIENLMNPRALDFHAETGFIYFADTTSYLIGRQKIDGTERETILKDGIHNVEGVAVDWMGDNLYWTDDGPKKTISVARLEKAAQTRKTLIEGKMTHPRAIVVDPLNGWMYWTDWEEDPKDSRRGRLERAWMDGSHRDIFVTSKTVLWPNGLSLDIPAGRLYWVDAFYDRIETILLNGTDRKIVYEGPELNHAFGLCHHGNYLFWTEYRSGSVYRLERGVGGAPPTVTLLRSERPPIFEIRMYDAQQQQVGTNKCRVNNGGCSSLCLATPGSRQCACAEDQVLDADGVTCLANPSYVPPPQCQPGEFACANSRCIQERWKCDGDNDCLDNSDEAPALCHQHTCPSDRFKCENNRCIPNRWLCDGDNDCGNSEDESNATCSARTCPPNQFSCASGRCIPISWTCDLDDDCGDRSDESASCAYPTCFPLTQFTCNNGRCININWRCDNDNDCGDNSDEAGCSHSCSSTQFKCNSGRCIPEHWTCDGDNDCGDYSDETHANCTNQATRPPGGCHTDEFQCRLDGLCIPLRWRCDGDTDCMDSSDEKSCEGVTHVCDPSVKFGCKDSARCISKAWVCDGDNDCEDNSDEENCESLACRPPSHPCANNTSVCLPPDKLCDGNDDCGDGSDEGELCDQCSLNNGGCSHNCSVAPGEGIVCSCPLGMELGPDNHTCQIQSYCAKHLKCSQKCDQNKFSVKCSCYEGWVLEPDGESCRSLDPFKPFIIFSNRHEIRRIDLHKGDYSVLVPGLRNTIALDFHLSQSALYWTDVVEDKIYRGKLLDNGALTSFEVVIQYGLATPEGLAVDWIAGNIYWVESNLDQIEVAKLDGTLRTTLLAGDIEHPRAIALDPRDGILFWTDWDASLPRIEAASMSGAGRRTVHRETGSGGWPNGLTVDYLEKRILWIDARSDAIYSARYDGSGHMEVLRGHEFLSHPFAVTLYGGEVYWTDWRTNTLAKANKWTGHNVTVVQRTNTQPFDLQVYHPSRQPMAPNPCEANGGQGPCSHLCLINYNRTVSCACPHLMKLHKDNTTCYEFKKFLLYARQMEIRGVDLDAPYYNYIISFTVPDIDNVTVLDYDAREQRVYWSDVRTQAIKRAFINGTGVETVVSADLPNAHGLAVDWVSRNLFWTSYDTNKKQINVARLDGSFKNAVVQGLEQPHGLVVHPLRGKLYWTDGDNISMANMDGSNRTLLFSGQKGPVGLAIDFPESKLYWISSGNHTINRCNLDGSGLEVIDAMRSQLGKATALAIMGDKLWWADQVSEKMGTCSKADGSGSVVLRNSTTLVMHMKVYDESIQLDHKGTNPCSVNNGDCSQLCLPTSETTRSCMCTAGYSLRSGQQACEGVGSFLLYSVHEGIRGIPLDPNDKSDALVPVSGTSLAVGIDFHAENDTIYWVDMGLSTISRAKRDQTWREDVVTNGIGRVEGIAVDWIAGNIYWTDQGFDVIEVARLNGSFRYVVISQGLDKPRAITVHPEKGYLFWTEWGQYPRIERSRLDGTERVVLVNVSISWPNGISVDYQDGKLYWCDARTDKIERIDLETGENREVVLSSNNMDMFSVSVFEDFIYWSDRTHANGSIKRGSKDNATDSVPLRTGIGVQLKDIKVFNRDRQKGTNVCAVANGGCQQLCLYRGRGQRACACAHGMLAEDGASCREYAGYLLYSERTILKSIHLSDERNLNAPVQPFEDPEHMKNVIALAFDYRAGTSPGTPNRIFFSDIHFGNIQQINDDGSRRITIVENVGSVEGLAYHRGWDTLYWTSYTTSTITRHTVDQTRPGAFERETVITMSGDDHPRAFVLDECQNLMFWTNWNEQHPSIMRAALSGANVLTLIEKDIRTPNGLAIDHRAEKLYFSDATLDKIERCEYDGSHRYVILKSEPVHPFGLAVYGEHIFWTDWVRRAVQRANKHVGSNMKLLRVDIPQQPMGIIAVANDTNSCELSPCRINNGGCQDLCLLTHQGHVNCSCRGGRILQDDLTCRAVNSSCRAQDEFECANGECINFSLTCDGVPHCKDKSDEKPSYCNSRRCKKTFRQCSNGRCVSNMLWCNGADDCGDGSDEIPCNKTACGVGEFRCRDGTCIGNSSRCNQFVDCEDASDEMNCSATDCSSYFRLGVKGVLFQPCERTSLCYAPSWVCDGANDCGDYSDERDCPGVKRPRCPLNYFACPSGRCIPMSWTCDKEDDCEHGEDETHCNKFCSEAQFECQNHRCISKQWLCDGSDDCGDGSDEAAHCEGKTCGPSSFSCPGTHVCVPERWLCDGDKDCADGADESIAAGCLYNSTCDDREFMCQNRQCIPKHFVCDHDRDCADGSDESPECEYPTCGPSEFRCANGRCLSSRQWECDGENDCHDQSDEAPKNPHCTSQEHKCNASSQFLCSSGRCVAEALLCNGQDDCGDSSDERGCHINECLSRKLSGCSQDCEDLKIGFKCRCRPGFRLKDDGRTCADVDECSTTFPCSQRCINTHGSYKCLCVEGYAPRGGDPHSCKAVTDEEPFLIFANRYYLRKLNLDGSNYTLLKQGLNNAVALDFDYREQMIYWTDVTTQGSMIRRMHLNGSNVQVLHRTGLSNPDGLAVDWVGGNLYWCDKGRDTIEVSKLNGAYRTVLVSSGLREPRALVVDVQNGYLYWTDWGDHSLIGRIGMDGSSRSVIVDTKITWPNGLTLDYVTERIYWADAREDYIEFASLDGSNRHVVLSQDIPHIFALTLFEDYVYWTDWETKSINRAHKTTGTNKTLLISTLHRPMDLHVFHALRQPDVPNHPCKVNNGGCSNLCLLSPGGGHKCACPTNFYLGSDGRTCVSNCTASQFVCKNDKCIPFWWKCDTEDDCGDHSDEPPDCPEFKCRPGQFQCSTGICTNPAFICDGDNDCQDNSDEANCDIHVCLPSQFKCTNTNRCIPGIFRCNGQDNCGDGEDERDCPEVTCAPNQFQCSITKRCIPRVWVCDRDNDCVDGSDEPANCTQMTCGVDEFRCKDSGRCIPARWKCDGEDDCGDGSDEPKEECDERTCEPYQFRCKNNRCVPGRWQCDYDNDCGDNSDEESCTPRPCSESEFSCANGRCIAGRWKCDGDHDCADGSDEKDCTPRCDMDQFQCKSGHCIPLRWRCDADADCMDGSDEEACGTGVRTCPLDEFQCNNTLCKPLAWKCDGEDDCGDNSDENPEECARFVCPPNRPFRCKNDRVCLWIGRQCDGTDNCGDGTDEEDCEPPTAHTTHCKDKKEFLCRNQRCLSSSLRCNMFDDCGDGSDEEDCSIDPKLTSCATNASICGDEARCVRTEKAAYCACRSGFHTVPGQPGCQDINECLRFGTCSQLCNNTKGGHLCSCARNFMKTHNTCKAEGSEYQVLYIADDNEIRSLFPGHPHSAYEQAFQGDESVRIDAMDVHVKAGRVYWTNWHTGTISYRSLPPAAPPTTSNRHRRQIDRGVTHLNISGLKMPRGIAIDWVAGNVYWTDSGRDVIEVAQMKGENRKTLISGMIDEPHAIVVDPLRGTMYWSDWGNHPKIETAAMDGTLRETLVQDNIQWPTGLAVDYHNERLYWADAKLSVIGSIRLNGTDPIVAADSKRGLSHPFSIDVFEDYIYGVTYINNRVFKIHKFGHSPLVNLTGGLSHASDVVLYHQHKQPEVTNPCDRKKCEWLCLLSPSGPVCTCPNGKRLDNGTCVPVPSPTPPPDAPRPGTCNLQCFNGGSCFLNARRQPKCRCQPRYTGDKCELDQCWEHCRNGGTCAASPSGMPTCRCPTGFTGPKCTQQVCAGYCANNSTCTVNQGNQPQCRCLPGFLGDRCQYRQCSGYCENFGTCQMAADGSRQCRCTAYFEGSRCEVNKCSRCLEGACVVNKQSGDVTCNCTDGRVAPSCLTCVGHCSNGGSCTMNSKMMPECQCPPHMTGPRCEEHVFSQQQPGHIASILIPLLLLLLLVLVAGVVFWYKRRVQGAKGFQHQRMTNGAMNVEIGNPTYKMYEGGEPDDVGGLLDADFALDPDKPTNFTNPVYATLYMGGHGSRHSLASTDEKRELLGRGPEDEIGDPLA

Substance: alpha 2-macroglobulin-trypsin complex (from UniProt P01023 24-1474)
- Kd: 70 nM
